Data published in article PMC5405867 (Nature structural & molecular biology, 2017).
Numbering of substitutions follows the chain as printed. Names and notes keep the numbering of the source. Blank lines part the entries; values can stand above or below the binder they belong to.

What was measured:
[1] = target: T1, murine USP18^IBB-2-USP7, His6-tagged (mouse, UniProt Q9WTV6 1-368, residues 256-263 (S-A-R-N-S-R-T-E) replaced by the corresponding residues …); assay: cell-based or functional assay
T1 sequence (looked up): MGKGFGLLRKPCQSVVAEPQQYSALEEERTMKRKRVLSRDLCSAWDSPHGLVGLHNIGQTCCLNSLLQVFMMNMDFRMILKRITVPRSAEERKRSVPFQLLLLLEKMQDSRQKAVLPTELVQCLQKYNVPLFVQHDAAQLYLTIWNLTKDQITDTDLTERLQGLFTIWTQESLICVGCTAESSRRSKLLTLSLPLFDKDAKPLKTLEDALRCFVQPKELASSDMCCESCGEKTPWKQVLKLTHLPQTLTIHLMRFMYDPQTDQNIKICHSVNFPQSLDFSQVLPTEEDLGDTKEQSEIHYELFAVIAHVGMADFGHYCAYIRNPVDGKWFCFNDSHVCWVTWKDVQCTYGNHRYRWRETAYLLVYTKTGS

[2] = target: T2, murine USP18 catalytic core (residues 46-368), His6-tagged (mouse, UniProt Q9WTV6 46-368); assay: SPR
T2 sequence (looked up): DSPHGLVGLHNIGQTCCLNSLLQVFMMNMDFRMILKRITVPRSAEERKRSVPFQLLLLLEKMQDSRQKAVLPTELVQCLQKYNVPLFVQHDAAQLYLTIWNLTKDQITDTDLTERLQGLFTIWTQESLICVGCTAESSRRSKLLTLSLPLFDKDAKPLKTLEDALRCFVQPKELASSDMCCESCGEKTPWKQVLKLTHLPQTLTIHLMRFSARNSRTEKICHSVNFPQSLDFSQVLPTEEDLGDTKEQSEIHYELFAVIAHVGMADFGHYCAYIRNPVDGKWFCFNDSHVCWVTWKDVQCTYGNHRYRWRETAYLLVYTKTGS

[3] = target: T3, human USP18 (residues 16-372), tag removed (human, UniProt Q9UMW8 16-372); assay: covalent adduct formation with an active-site probe
T3 sequence (looked up): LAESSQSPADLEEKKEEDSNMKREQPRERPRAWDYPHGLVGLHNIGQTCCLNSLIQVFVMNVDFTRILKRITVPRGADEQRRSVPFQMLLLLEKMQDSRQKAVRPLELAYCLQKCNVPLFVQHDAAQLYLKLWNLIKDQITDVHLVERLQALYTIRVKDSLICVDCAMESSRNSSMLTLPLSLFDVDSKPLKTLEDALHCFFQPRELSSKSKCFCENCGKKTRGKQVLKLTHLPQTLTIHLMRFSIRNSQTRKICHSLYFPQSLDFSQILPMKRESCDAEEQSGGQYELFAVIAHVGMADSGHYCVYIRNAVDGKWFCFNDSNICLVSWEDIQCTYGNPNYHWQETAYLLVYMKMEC

catalytic activity towards ISG15-FP, percent of wild type [1]: 65 % of wt activity
Kd [2]: 1490 ± 30 nM
B1: mouse ISG15 (residues 1-155, C76S) (natural protein, UniProt Q64339 1-155, looked up)
chain: MAWDLKVKMLGGNDFLVSVTNSMTVSELKKQIAQKIGVPAFQQRLAHQTAVLQDGLTLSSLGLGPSSTVMLVVQNSSEPLSILVRNERGHSNIYEVFLTQTVDTLKKKVSQREQVHEDQFWLSFEGRPMEDKELLGEYGLKPQCTVIKHLRLRGG

stoichiometry N [2]: 0.4 ISG15 per immobilized USP18
B2: mouse ISG15-W121R (C76S) (natural protein, UniProt Q64339 1-155, looked up)
chain: B1 chain with W121R

binding result [3]: binds
B3: mouse ISG15-PA (full-length ISG15 propargylamide probe, residues 1-154, C76S) (natural protein, UniProt Q64339 1-154, looked up)
chain: MAWDLKVKMLGGNDFLVSVTNSMTVSELKKQIAQKIGVPAFQQRLAHQTAVLQDGLTLSSLGLGPSSTVMLVVQNSSEPLSILVRNERGHSNIYEVFLTQTVDTLKKKVSQREQVHEDQFWLSFEGRPMEDKELLGEYGLKPQCTVIKHLRLRG
modifications: C-terminal propargylamide (PA)
